# ± gives the standard error. Variants at the floor of the assay were thinned out.
# B1: glmS ribozyme (parent)
# chain: AUAAAAGCGCCAGAACUACAGAAAUGUAGUUGACGAGGAGGAGGUUUAUCGAAUUUUCGGCGGAUGCCUCCAAA
# Columns and labels:
# Details in all cases: with glucosamine-6-phosphate
# glucosamine-6-phosphate [1] = variants of: B1; assay: self-cleavage kobs at 40 uM GlcN6P; higher = faster cleavage; RNA array
# In short: (§1)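 Glucosamine-6-phosphate (40 μM to 10 mM) in HEPES/KCl/Mg(OAc)2 buffer was flowed over sequenced MiSeq chips, and tiles were imaged over ~14 h. Barcoded ribozyme variants there had been transcribed in situ by E. coli RNA polymerase and were tracked through a hybridised Cy3 probe at 37 °C. One- or two-exponential decay fits to per-tile medians, normalised to baseline and to non-cleaving reference variants, gave kobs. kcat and KM came from weighted Michaelis–Menten fits across concentrations.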
# glucosamine-6-phosphate [2] = variants of: B1; assay: self-cleavage kobs at 160 uM GlcN6P; higher = faster cleavage; RNA array
# In short: as §1
# glucosamine-6-phosphate [3] = variants of: B1; assay: self-cleavage kobs at 640 uM GlcN6P; higher = faster cleavage; RNA array
# In short: as §1
# glucosamine-6-phosphate [4] = variants of: B1; assay: self-cleavage kobs at 10000 uM GlcN6P; higher = faster cleavage; RNA array
# In short: as §1
# glucosamine-6-phosphate [5] = variants of: B1; assay: self-cleavage kobs at 2500 uM GlcN6P; higher = faster cleavage; RNA array
# In short: as §1
Variant,self-cleavage kobs at 40 uM GlcN6P (glucosamine-6-phosphate [1]),self-cleavage kobs at 160 uM GlcN6P (glucosamine-6-phosphate [2]),self-cleavage kobs at 640 uM GlcN6P (glucosamine-6-phosphate [3]),self-cleavage kobs at 10000 uM GlcN6P (glucosamine-6-phosphate [4]),self-cleavage kobs at 2500 uM GlcN6P (glucosamine-6-phosphate [5])
AUAAAAGCGGCAGAACUACAGAAAUGUAGUUGACGAGGAGGAGAUUUAUCGAAUUUUCGGCGGAUGCCUCCAAA [C10G G44A],< 1e-05 s⁻¹,< 1e-05 s⁻¹,< 1e-05 s⁻¹,< 1e-05 s⁻¹,–
AUAAAAGCGCCAGAUCUACAGAAAUGUAGUUGACGAGGAGGAUGUUUAUCGAAUUUUCGGCGGAUGCCUCCAAA [A15U G43U],< 1e-05 s⁻¹,< 1e-05 s⁻¹,< 1e-05 s⁻¹,< 1e-05 s⁻¹,–
AUAAAAGCGCCAGAACUACAGAAAUGUAGUUGACGAGGACGAGGUUUAUCGAAUUUUCGGCUGAUGCCUCCAAA [G40C G62U],< 1e-05 s⁻¹,< 1e-05 s⁻¹,< 1e-05 s⁻¹,< 1e-05 s⁻¹,< 1e-05 s⁻¹
AUAAAAGCGCCAGAACUACAGAAAUGUAGUUGACGAGGAGGAGGUUUAUCGAUUUUUCGCCGGAUGCCUCCAAA [A53U G60C],< 1e-05 s⁻¹,–,–,< 1e-05 s⁻¹,< 1e-05 s⁻¹
AUAAAAGCGCGAGAACUACAGAAAUGUAGUUGACGAGGAGGAGGGUUAUCGAAUUUUCGGCGGAUGCCUCCAAA [C11G U45G],< 1e-05 s⁻¹,< 1e-05 s⁻¹,< 1e-05 s⁻¹,< 1e-05 s⁻¹,< 1e-05 s⁻¹
AUAAAAGCGCCAGAACUACAGAAAUGUAGCUGACGAGGAGGAGGUUUAUCGAAUUUUCAGCGGAUGCUUCCAAA [U30C G59A C68U],< 1e-05 s⁻¹,–,–,< 1e-05 s⁻¹,–
AUAAAAGCGCCAGAACUACAGAAAUGUAGUUGACGAGGAGGAGGCUUAUCGAUUUUUCGGCGGAUGCCCCCAAA [U45C A53U U69C],–,9.96e-05 ± 2.7e-05 s⁻¹,0.000489 ± 0.00012 s⁻¹,–,0.000752 ± 0.00022 s⁻¹
AUAAACGCGCCAGAACUACAGAAAUGUAGUUGACGAGGAGGAGGUUUAUCGAAUUUUCGGCUGAUGCCUCCAAA [A6C G62U],< 1e-05 s⁻¹,< 1e-05 s⁻¹,–,< 1e-05 s⁻¹,< 1e-05 s⁻¹
AUAAAAGCCCCAGAACUACAGAAAUGUAGUUGACGAGGAGGAGGUUUAUCGAAUUUUCGGCAGAUGCCUCCAAA [G9C G62A],< 1e-05 s⁻¹,–,< 1e-05 s⁻¹,< 1e-05 s⁻¹,–
AUAAAAGCGCCAGAAUUACAGAAAUGUAGUUGACGAGGAGGAGGUUUAUCCAAUUUUCGGCGGAUGCCUCCAAA [C16U G51C],–,< 1e-05 s⁻¹,< 1e-05 s⁻¹,–,< 1e-05 s⁻¹
AUAAACGCGCCAGAACUACAGAAAUGUAGUUGACGGGGAGGAGGUUUAUCGAAUUUUCGGCGGAUGCCUCCAAA [A6C A36G],< 1e-05 s⁻¹,< 1e-05 s⁻¹,< 1e-05 s⁻¹,< 1e-05 s⁻¹,< 1e-05 s⁻¹
AUAAAACCGCCAGAACUACAGAAAUGUAGUUGAUAAUGAGGUUGUUUAUCGAAUUUUCGGCGGAUGCCUCAAAA [G7C C34U G35A G37U A42U G43U C71A],< 1e-05 s⁻¹,–,< 1e-05 s⁻¹,–,–
AUAAAAGCGCCAGAACUACAGAAAUGUAGUUGGCGAGGAGGAGGUUUAUCGAAUUUUCGGCGAAUGCCUCCAAA [A33G G63A],< 1e-05 s⁻¹,< 1e-05 s⁻¹,–,< 1e-05 s⁻¹,–
AUAAAAGCGCCAGAACUACAGAAAUGUAGUUCACGAGGAGGCGGUUUAUCGAAUUUUCGGCGGAUGCAUCCAAA [G32C A42C C68A],< 1e-05 s⁻¹,–,< 1e-05 s⁻¹,–,–
AUAAAAGCGCCAGAACUACAGAAAUGUAGUUGACGAGGAGGAGGUUUAUAGAAUUUUCGGCGGAUACCUGCAAA [C50A G66A C70G],–,5.52e-05 ± 2.4e-05 s⁻¹,0.000243 ± 6.1e-05 s⁻¹,–,0.000169 ± 4.8e-05 s⁻¹
AUAAAAGCGCUAGAACUACAGAAAUGUAGUUGACGAGGAGGAGGUUUAUCUAAUUUUCGGCGGAUGCCUCCAAA [C11U G51U],< 1e-05 s⁻¹,< 1e-05 s⁻¹,< 1e-05 s⁻¹,< 1e-05 s⁻¹,< 1e-05 s⁻¹
AUAAAAACGCCAGAACUACAGAAAUGUAGUUGACGAGGAGGAGGUCUAUCGAAUUUUCGGCGGAUGCCUCCAAA [G7A U46C],< 1e-05 s⁻¹,–,< 1e-05 s⁻¹,< 1e-05 s⁻¹,–
AUAAAAGCGCCAGAACUACAGAAAUGUAGUUGACGCCGAGGAGGUUUAUCGUAUUUUCGGCGGGUGCCUGCAAA [A36C G37C A52U A64G C70G],–,< 1e-05 s⁻¹,< 1e-05 s⁻¹,–,–
AUAAAAGCGCCAGAACUACAGAAAUGUAGUGGCCGAGGAGGAGGUGUAUCGAGUUUUCAGCGAAUGCCUCCAAA [U31G A33C U46G A53G G59A G63A],–,< 1e-05 s⁻¹,–,–,< 1e-05 s⁻¹
AUAAAUGCGCUAGAAAUACAGAAAUGUAGCUGACGAGGAGGAGGUUUAUGGAAUUUUCGGCGGAUGCCUCCAAA [A6U C11U C16A U30C C50G],0.000167 ± 2.9e-05 s⁻¹,–,–,0.000181 ± 2.9e-05 s⁻¹,0.000224 ± 9e-05 s⁻¹
AUAAAAGCGCCAGAACUACAGAAAUGUAGUUGACGAGGAGGAGGGUUAUCGAAUUUUCGCCGGAUGCCUCCAAA [U45G G60C],< 1e-05 s⁻¹,–,< 1e-05 s⁻¹,–,–
AUAAACGCACCAGAACUACAGAAAUGUAGUUGACGAGGAGGAGGAUUAUCGAAUUUUCGGCGGAUGCCUCCAAA [A6C G9A U45A],–,< 1e-05 s⁻¹,< 1e-05 s⁻¹,–,–
AUAAAAGCGGCAGAACUACAGAAAUGUAGUCGACUAGGAGGAGGUUUAUCGAAUUUUCGGCGGAUGCCUCCAAA [C10G U31C G35U],< 1e-05 s⁻¹,–,–,< 1e-05 s⁻¹,–
AUAAAAACGACAGAAGUACAGAAAUGUAAUUGACGAGGAGGUGGUUUAUCUAAUUUUCGGUGGAUGCCUCCAAA [G7A C10A C16G G29A A42U G51U C61U],–,< 1e-05 s⁻¹,–,< 1e-05 s⁻¹,< 1e-05 s⁻¹
AUAAAAGCGCCAGAACUACAGAAAUGUAGUUGACGAGGACGAGGUUUAUCGAAUUUUCUGCGGAUGCAUCAAAA [G40C G59U C68A C71A],< 1e-05 s⁻¹,–,–,–,–
